This note sets out measurements from publication PMC5627055, “Interactions of the Bacillus subtilis DnaE polymerase with replisomal proteins modulate its activity and fidelity” (Open Biology, 2017).

Series [1] has as its target T1, DnaE (Bacillus subtilis, UniProt O34623 1-1115). The experiment in a line: EMSA; 10 mM Mg2+; multiple shifted bands; EMSA: 20 mM HEPES pH 7.5, 50 mM NaCl, 10 mM MgCl2, 1 mM DTT, 0.66 nM radiolabelled substrate, 37 C 5 min; 5% native PAGE. Particulars: protein: recombinant; tags: N-terminal His6-MBP removed by TEV; label: radiolabel at 5' end; single strand. (In EMSA bound probe runs differently from free probe, usually more slowly.)

The target of series [2] is T2, PolCexo- (Bacillus subtilis, UniProt P13267 1-1437, D425A;E427A). The experiment in a line: EMSA; 10 mM Mg2+; no detectable stable complex; EMSA: 20 mM HEPES pH 7.5, 50 mM NaCl, 10 mM MgCl2, 1 mM DTT, 0.66 nM radiolabelled substrate, 37 C 5 min; 5% native PAGE. As to conditions: protein: recombinant; tags: N-terminal His tag removed by TEV; 15 bp duplex; 15 nt 5' overhang of template (primer-template).

Series [3] has as its target T1, DnaE. The experiment in a line: EMSA; 10 mM Mg2+; EMSA: 20 mM HEPES pH 7.5, 50 mM NaCl, 10 mM MgCl2, 1 mM DTT, 0.66 nM radiolabelled substrate, 37 C 5 min; 5% native PAGE. As to conditions: protein: recombinant; tags: N-terminal His6-MBP removed by TEV; 15 bp duplex; 15 nt 5' overhang of template (primer-template).
Series [4] addresses T3, Bacillus subtilis PolC_(exo-) (D425A/E427A) (B. subtilis, UniProt P13267 1-1437, D425A | E427A).
T3 construct: p2BT-NT-HT-PolC_(exo-); source: E. coli BLR(DE3), purified (HisTrap, TEV cleavage, HisTrap flow through, HiTrap Q, Superdex-200); not shown: His-tag, N-terminal, cleaved
Put plainly: native gel or EMSA; DnaE (1 µM) pre-incubated with radiolabelled primed 3'-mismatch (A:G) DNA substrate (0.66 nM) at 37°C for 5 min, then increasing PolC or PolC_(exo-) (25-1000 nM) and 5 min more at 37°C; 20 mM HEPES pH 7.5, 50 mM NaCl, 10 mM MgCl2, 1 mM DTT; 5% native polyacrylamide gel; ternary template-DnaE-PolC complex read from the shifted DNA. Particulars: both partners purified.

For series [5], the target named is T4, Bacillus subtilis PolC polymerase, wild type (B. subtilis, UniProt P13267 1-1437).
T4 construct: PolC, DNA polymerase of the C family with internal 3'>5' exonuclease domain, Bacillus subtilis; polC gene cloned into p2BT (p2BT-NT-HT-PolC); The N-terminal His-tag was removed with TEV protease during purification; also called wild-type PolC; source: E. coli BLR(DE3), purified (HisTrap, TEV cleavage, HisTrap flow through, HiTrap Q, Superdex-200); not shown: His-tag, N-terminal, cleaved
Described as above. Particulars: both partners purified.

Series [6] addresses T2, PolCexo-. Put plainly: EMSA; 10 mM Mg2+; 1 uM PolCexo-; no detectable stable complex; EMSA: 20 mM HEPES pH 7.5, 50 mM NaCl, 10 mM MgCl2, 1 mM DTT, 0.66 nM radiolabelled substrate, 37 C 5 min; 5% native PAGE. As to conditions: protein: recombinant; tags: N-terminal His tag removed by TEV; 14 bp duplex; 3'-terminal primer mismatch; 15 nt 5' overhang of template.
The target in a further series is DnaE;PolCexo- (Bacillus subtilis;Bacillus subtilis, UniProt O34623;P13267 1-1115;1-1437, |D425A;E427A). The experiment in a line: EMSA; 10 mM Mg2+; 1 uM DnaE, 25-1000 nM PolCexo-; ternary complex; EMSA: 20 mM HEPES pH 7.5, 50 mM NaCl, 10 mM MgCl2, 1 mM DTT, 0.66 nM radiolabelled substrate, 37 C 5 min; 5% native PAGE. Particulars: protein: recombinant;recombinant; tags: N-terminal His6-MBP removed by TEV;N-terminal His tag removed by TEV; copies: 1;1; 14 bp duplex; 3'-terminal primer mismatch; 15 nt 5' overhang of template.

In a further series the target is DnaE;PolC (Bacillus subtilis;Bacillus subtilis, UniProt O34623;P13267 1-1115;1-1437, |). Put plainly: EMSA; 10 mM Mg2+; 1 uM DnaE, 25-1000 nM PolC; ternary complex, then DNA digested by PolC; EMSA: 20 mM HEPES pH 7.5, 50 mM NaCl, 10 mM MgCl2, 1 mM DTT, 0.66 nM radiolabelled substrate, 37 C 5 min; 5% native PAGE. As to conditions: protein: recombinant;recombinant; tags: N-terminal His6-MBP removed by TEV;N-terminal His tag removed by TEV; copies: 1;1; 14 bp duplex; 3'-terminal primer mismatch; 15 nt 5' overhang of template.

Series [7] concerns the target T1, DnaE. Put plainly: EMSA; 10 mM Mg2+; 1 uM DnaE; EMSA: 20 mM HEPES pH 7.5, 50 mM NaCl, 10 mM MgCl2, 1 mM DTT, 0.66 nM radiolabelled substrate, 37 C 5 min; 5% native PAGE. Particulars: protein: recombinant; tags: N-terminal His6-MBP removed by TEV; 14 bp duplex; 3'-terminal primer mismatch; 15 nt 5' overhang of template.

B1: ssDNA 30mer (ssDNA)
DNA: ACACACACACACACACACACACACCCCCTT
For the molecule B1, the binding result in the series with DnaE [1] is reported as “binds”.

B2: DNA-primed 30mer template (dsDNA)
DNA 1: B1 DNA
DNA 2: AAGGGGGTGTGTGTG
As to B2, the binding result in the series with PolCexo- [2] is on record as “no binding”; with DnaE [3], “binds”.

B3: Bacillus subtilis DnaE polymerase, wild type (enzyme, B. subtilis, UniProt O34623 1-1115, looked up)
chain: MSFVHLQVHSGYSLLNSAAAVEELVSEADRLGYASLALTDDHVMYGAIQFYKACKARGINPIIGLTASVFTDDSELEAYPLVLLAKSNTGYQNLLKISSVLQSKSKGGLKPKWLHSYREGIIAITPGEKGYIETLLEGGLFEQAAQASLEFQSIFGKGAFYFSYQPFKGNQVLSEQILKLSEETGIPVTATGDVHYIRKEDKAAYRCLKAIKAGEKLTDAPAEDLPDLDLKPLEEMQNIYREHPEALQASVEIAEQCRVDVSLGQTRLPSFPTPDGTSADDYLTDICMEGLRSRFGKPDERYLRRLQYELDVIKRMKFSDYFLIVWDFMKHAHEKGIVTGPGRGSAAGSLVAYVLYITDVDPIKHHLLFERFLNPERVSMPDIDIDFPDTRRDEVIQYVQQKYGAMHVAQIITFGTLAAKAALRDVGRVFGVSPKEADQLAKLIPSRPGMTLDEARQQSPQLDKRLRESSLLQQVYSIARKIEGLPRHASTHAAGVVLSEEPLTDVVPLQEGHEGIYLTQYAMDHLEDLGLLKMDFLGLRNLTLIESITSMIEKEENIKIDLSSISYSDDKTFSLLSKGDTTGIFQLESAGMRSVLKRLKPSGLEDIVAVNALYRPGPMENIPLFIDRKHGRAPVHYPHEDLRSILEDTYGVIVYQEQIMMIASRMAGFSLGEADLLRRAVSKKKKEILDRERSHFVEGCLKKEYSVDTANEVYDLIVKFANYGFNRSHAVAYSMIGCQLAYLKAHYPLYFMCGLLTSVIGNEDKISQYLYEAKGSGIRILPPSVNKSSFPFTVENGSVRYSLRAIKSVGVSAVKDIYKARKEKPFEDLFDFCFRVPSKSVNRKMLEALIFSGAMDEFGQNRATLLASIDVALEHAELFAADDDQMGLFLDESFSIKPKYVETEELPLVDLLAFEKETLGIYFSNHPLSAFRKQLTAQGAVSILQAQRAVKRQLSLGVLLSKIKTIRTKTGQNMAFLTLSDETGEMEAVVFPEQFRQLSPVLREGALLFTAGKCEVRQDKIQFIMSRAELLEDMDAEKAPSVYIKIESSQHSQEILAKIKRILLEHKGETGVYLYYERQKQTIKLPESFHINADHQVLYRLKELLGQKNVVLKQW
notes: DnaE, DNA polymerase of the C family (DnaE3 group), Bacillus subtilis; dnaE gene cloned into p2CT (p2CT-NT-HT-DnaE); also called DnaEWT; source: E. coli BL21 (DE3) Rosetta, purified (HisTrap, TEV cleavage, HisTrap flow through, ammonium sulfate, HiTrap Q); not shown: His6, N-terminal, cleaved
Regarding B3, the binding result in series [4] and in series [5] was “binds” each time.

B4: 3'-mismatch (A:G) DNA-primed 30mer template (dsDNA)
DNA 1: B1 DNA
DNA 2: AAGGGGGTGTGTGTA
Take B4: the figures for the binding result in the series with PolCexo- [6], with DnaE;PolC and with DnaE [7] were “no binding”, “binds” and “binds”, respectively. In addition, the binding signal in the series with DnaE;PolCexo- is ~4 fold shifted substrate vs DnaE alone (up to).
